T1: TWINKLE (UniProt Q96RR1 32-684)
T1 sequence: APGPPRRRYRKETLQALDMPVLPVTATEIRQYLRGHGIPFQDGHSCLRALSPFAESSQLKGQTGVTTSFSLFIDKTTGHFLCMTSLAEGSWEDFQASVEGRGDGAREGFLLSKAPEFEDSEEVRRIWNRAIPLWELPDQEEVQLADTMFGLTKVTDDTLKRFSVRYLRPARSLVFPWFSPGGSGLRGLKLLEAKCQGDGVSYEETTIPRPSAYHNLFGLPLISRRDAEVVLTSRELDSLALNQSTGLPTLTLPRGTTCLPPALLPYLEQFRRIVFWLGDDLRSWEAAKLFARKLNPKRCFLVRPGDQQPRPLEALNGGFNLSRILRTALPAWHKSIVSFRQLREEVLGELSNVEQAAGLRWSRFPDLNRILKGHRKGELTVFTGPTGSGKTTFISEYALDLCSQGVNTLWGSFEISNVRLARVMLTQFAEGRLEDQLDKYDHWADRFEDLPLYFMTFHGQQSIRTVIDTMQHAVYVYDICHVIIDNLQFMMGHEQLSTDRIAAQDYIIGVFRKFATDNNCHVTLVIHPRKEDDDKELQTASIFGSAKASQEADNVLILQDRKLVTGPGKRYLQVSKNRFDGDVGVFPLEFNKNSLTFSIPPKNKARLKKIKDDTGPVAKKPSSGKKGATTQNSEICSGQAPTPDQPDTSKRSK

B1: closed circular ssDNA (100 nt) (ssDNA)
DNA: GAGGGGTATGTTTTTTTTTTTTTTTTTTTTTTTTTTTTTTTTTTTTTTTTTTTTTTTTTTTTTTTTTTTTTTTTTTTTTTTTTTTTTTTTCATACCCCTAT
B2: linear dsDNA (100 bp) (dsDNA)
DNA 1: GATTTTTTTTTTTTTTTTTTTTTTTTTTTTTTTTTTTTTCATACCCCTATGAGGGGTATGTTTTTTTTTTTTTTTTTTTTTTTTTTTTTTTTTTTTTTAT
DNA 2: ATAAAAAAAAAAAAAAAAAAAAAAAAAAAAAAAAAAAAAACATACCCCTCATAGGGGTATGAAAAAAAAAAAAAAAAAAAAAAAAAAAAAAAAAAAAATC
B3: linear ssDNA (100 nt) (ssDNA)
DNA: B2 DNA 1

Molecular target: T1, TWINKLE
Assay: EMSA

Binding result, binds:
B1
B2
B3

— publication PMC3241658
